The text below walks through data of CN113336845A (LANZHOU VETERINARY RES INST CAAS, dated 2021).

The test has as its target T1, 融合蛋白3AN (FMDV 3A epitope fused to PRRSV N protein).
T1 construct: also called 3AN融合蛋白; 3AN蛋白抗原
Put plainly: ELISA, biotin-labelled C8 detects 3AN captured by 3A24.

B1: 猪繁殖与呼吸综合征病毒核衣壳蛋白的猪源单个B细胞抗体C8 (antibody, V domains shown)
VH: GLVQPGGSLRLSCVASGFTFSSYIVTWVRQSPGKGLEWLAGTGVGEYALYYRNSVRGRFTLSRDNSQNTAYLQMNSLRVEETGRYFCRRGAAESVDLWGPGVEVVVSS
VL: QEPAMSVSLGGTVTLTCAFSSGSVTRSHWPSWFQLTPGQPPRTLIVSTDSRPTGVPSRFSGAISGYKAALTITGAQPEDEADYVCGVYFTFTKRPFGGGTHLTVLG
notes: also called C8单抗; 单克隆抗体C8
For the molecule B1, the binding result is given as “binds”.
